For 94 variants, protein stability index results are on record in the supplement of paper PMC10567573.

First the molecules themselves.
B1: STEAP1 (parent)
chain: LWKMKPRRNLEEDDYLHKDTGETS
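Further: lentivirally expressed fusions sorted by FACS into six bins by GFP to DsRed ratio, PSI derived from sequencing read proportions per bin multiplied by bin number.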

Variants of B1 are the subject of the data set. The data set is described as follows: protein stability index of a GFP-peptide fusion (GPS, HEK-293T) (PSI 1-6); higher = more stable. The following applies: c terminus: a fixed tail appended.
Consider LWWMKPRRNLEEDDYLHKDTGETS [K3W], for which the protein stability index stood at 3.27.
For the variant LWTMKPRRNLEEDDYLHKDTGETS [K3T], the protein stability index was 4.36.
In the case of LWHMKPRRNLEEDDYLHKDTGETS [K3H] it was 4.54; in that of LWQMKPRRNLEEDDYLHKDTGETS [K3Q], 4.88; in that of LWDMKPRRNLEEDDYLHKDTGETS [K3D], 5.06.
As for LWIMKPRRNLEEDDYLHKDTGETS [K3I], the protein stability index was 2.86.
In the case of LWNMKPRRNLEEDDYLHKDTGETS [K3N] it was 4.8; in that of LEKMKPRRNLEEDDYLHKDTGETS [W2E], 5.45; in that of LDKMKPRRNLEEDDYLHKDTGETS [W2D], 5.62.
Take LGKMKPRRNLEEDDYLHKDTGETS [W2G]: the protein stability index came to 4.96.
Take LQKMKPRRNLEEDDYLHKDTGETS [W2Q]: the protein stability index worked out at 5.31.
Take LYKMKPRRNLEEDDYLHKDTGETS [W2Y]: the protein stability index was found to be 4.92.
For LAKMKPRRNLEEDDYLHKDTGETS [W2A], the protein stability index turned out to be 5.25.
LKKMKPRRNLEEDDYLHKDTGETS [W2K]: the protein stability index worked out at 4.78.
As for LRKMKPRRNLEEDDYLHKDTGETS [W2R], the protein stability index stood at 4.83.
For the variant LLKMKPRRNLEEDDYLHKDTGETS [W2L], the protein stability index amounted to 5.
As to LSKMKPRRNLEEDDYLHKDTGETS [W2S], the protein stability index worked out at 5.48.
For the variant LCKMKPRRNLEEDDYLHKDTGETS [W2C], the protein stability index was found to be 5.08.
In the case of LHKMKPRRNLEEDDYLHKDTGETS [W2H] it was 4.96; in that of LTKMKPRRNLEEDDYLHKDTGETS [W2T], 5.22; in that of LPKMKPRRNLEEDDYLHKDTGETS [W2P], 5.49.
Regarding LVKMKPRRNLEEDDYLHKDTGETS [W2V], the protein stability index is 4.99.
Take LIKMKPRRNLEEDDYLHKDTGETS [W2I]: the protein stability index stood at 5.05.
In the case of LNKMKPRRNLEEDDYLHKDTGETS [W2N] it was 4.82.
Take LMKMKPRRNLEEDDYLHKDTGETS [W2M]: the protein stability index was 4.78.
On to LFKMKPRRNLEEDDYLHKDTGETS [W2F], for which the protein stability index came out at 4.55.
For the variant LWKIKPRRNLEEDDYLHKDTGETS [M4I], the protein stability index stood at 4.36.
As to LWKWKPRRNLEEDDYLHKDTGETS [M4W], the protein stability index is 4.14.
In the case of LWKVKPRRNLEEDDYLHKDTGETS [M4V] it was 4.41.
For LWKSKPRRNLEEDDYLHKDTGETS [M4S], the protein stability index came out at 4.69.
Turning to LWKTKPRRNLEEDDYLHKDTGETS [M4T], the protein stability index amounted to 4.62.
LWKYKPRRNLEEDDYLHKDTGETS [M4Y]: the protein stability index stood at 4.41.
LWKLKPRRNLEEDDYLHKDTGETS [M4L]: the protein stability index turned out to be 4.55.
As to LWKEKPRRNLEEDDYLHKDTGETS [M4E], the protein stability index amounted to 4.94.
Regarding LWKNKPRRNLEEDDYLHKDTGETS [M4N], the protein stability index amounted to 4.69.
As to LWKDKPRRNLEEDDYLHKDTGETS [M4D], the protein stability index was 5.16.
For the variant LWKHKPRRNLEEDDYLHKDTGETS [M4H], the protein stability index came to 4.81.
For LWKGKPRRNLEEDDYLHKDTGETS [M4G], the protein stability index was found to be 4.86.
LWKAKPRRNLEEDDYLHKDTGETS [M4A]: the protein stability index came out at 4.43.
For the variant LWKPKPRRNLEEDDYLHKDTGETS [M4P], the protein stability index came out at 4.41.
As to LWKCKPRRNLEEDDYLHKDTGETS [M4C], the protein stability index came out at 4.27.
Take LWKQKPRRNLEEDDYLHKDTGETS [M4Q]: the protein stability index is 4.95.
The value for LWKFKPRRNLEEDDYLHKDTGETS [M4F] was 3.99.
Turning to LWKKKPRRNLEEDDYLHKDTGETS [M4K], the protein stability index came out at 4.19.
With LWKRKPRRNLEEDDYLHKDTGETS [M4R], the protein stability index stood at 4.47.
Take LWKMGPRRNLEEDDYLHKDTGETS [K5G]: the protein stability index was found to be 4.5.
Regarding LWKMVPRRNLEEDDYLHKDTGETS [K5V], the protein stability index came to 3.94.
As to LWKMEPRRNLEEDDYLHKDTGETS [K5E], the protein stability index worked out at 4.74.
On to LWKMLPRRNLEEDDYLHKDTGETS [K5L], for which the protein stability index amounted to 3.98.
With LWKMYPRRNLEEDDYLHKDTGETS [K5Y], the protein stability index stood at 3.9.
Take LWKMPPRRNLEEDDYLHKDTGETS [K5P]: the protein stability index is 4.91.
The value for LWKMDPRRNLEEDDYLHKDTGETS [K5D] was 4.8; that for LWKMRPRRNLEEDDYLHKDTGETS [K5R] was 4.11.
Take LWKMSPRRNLEEDDYLHKDTGETS [K5S]: the protein stability index was determined as 5.01.
On to LWKMFPRRNLEEDDYLHKDTGETS [K5F], for which the protein stability index turned out to be 2.77.
With LWKMCPRRNLEEDDYLHKDTGETS [K5C], the protein stability index is 4.45.
As to LWKMMPRRNLEEDDYLHKDTGETS [K5M], the protein stability index is 4.
In the case of LWKMQPRRNLEEDDYLHKDTGETS [K5Q], the protein stability index was determined as 4.86.
As to LWKMHPRRNLEEDDYLHKDTGETS [K5H], the protein stability index came out at 4.4.
Regarding LWKMIPRRNLEEDDYLHKDTGETS [K5I], the protein stability index came to 3.36.
On to LWKMWPRRNLEEDDYLHKDTGETS [K5W], for which the protein stability index was 2.86.
Consider LWKMNPRRNLEEDDYLHKDTGETS [K5N], for which the protein stability index came to 4.32.
Regarding LWKMTPRRNLEEDDYLHKDTGETS [K5T], the protein stability index stood at 4.56.
Take LWKMAPRRNLEEDDYLHKDTGETS [K5A]: the protein stability index came to 3.93.
For the variant LWKMKFRRNLEEDDYLHKDTGETS [P6F], the protein stability index stood at 3.62.
For the variant LWKMKRRRNLEEDDYLHKDTGETS [P6R], the protein stability index was found to be 3.65.
The value for LWKMKDRRNLEEDDYLHKDTGETS [P6D] was 4.41.
In the case of LWKMKGRRNLEEDDYLHKDTGETS [P6G] it was 4.42; in that of LWKMKCRRNLEEDDYLHKDTGETS [P6C], 3.52.
For the variant LWKMKVRRNLEEDDYLHKDTGETS [P6V], the protein stability index stood at 3.96.
On to LWKMKIRRNLEEDDYLHKDTGETS [P6I], for which the protein stability index came out at 3.94.
LWKMKERRNLEEDDYLHKDTGETS [P6E]: the protein stability index was 5.13.
As for LWKMKARRNLEEDDYLHKDTGETS [P6A], the protein stability index amounted to 3.94.
In the case of LWKMKYRRNLEEDDYLHKDTGETS [P6Y] it was 3.96.
On to LWKMKSRRNLEEDDYLHKDTGETS [P6S], for which the protein stability index was found to be 4.57.
As to LWKMKNRRNLEEDDYLHKDTGETS [P6N], the protein stability index stood at 4.52.
As for LWKMKMRRNLEEDDYLHKDTGETS [P6M], the protein stability index came out at 3.77.
On to LWKMKHRRNLEEDDYLHKDTGETS [P6H], for which the protein stability index was found to be 4.
In the case of LWKMKKRRNLEEDDYLHKDTGETS [P6K] it was 4.1; in that of LWKMKWRRNLEEDDYLHKDTGETS [P6W], 3.16.
The value for LWKMKLRRNLEEDDYLHKDTGETS [P6L] was 3.86; that for LWKMKTRRNLEEDDYLHKDTGETS [P6T] was 4.47; that for LWKMKQRRNLEEDDYLHKDTGETS [P6Q] was 3.94.
Regarding LWKMKPRGNLEEDDYLHKDTGETS [R8G], the protein stability index was found to be 4.07.
LWKMKPRLNLEEDDYLHKDTGETS [R8L]: the protein stability index was found to be 4.03.
Regarding LWKMKPRENLEEDDYLHKDTGETS [R8E], the protein stability index stood at 4.83.
The value for LWKMKPRHNLEEDDYLHKDTGETS [R8H] was 4.1; that for LWKMKPRCNLEEDDYLHKDTGETS [R8C] was 3.79.
The value for LWKMKPRKNLEEDDYLHKDTGETS [R8K] was 4.49.
On to LWKMKPRDNLEEDDYLHKDTGETS [R8D], for which the protein stability index stood at 4.74.
LWKMKPRMNLEEDDYLHKDTGETS [R8M]: the protein stability index is 4.6.
Consider LWKMKPRINLEEDDYLHKDTGETS [R8I], for which the protein stability index was 4.22.
Turning to LWKMKPRFNLEEDDYLHKDTGETS [R8F], the protein stability index worked out at 3.93.
Consider LWKMKPRANLEEDDYLHKDTGETS [R8A], for which the protein stability index is 4.61.
